B1: BRI1-GFP (receptor, Arabidopsis thaliana, UniProt O22476 24-1196, looked up)
chain: FQASPSQSLYREIHQLISFKDVLPDKNLLPDWSSNKNPCTFDGVTCRDDKVTSIDLSSKPLNVGFSAVSSSLLSLTGLESLFLSNSHINGSVSGFKCSASLTSLDLSRNSLSGPVTTLTSLGSCSGLKFLNVSSNTLDFPGKVSGGLKLNSLEVLDLSANSISGANVVGWVLSDGCGELKHLAISGNKISGDVDVSRCVNLEFLDVSSNNFSTGIPFLGDCSALQHLDISGNKLSGDFSRAISTCTELKLLNISSNQFVGPIPPLPLKSLQYLSLAENKFTGEIPDFLSGACDTLTGLDLSGNHFYGAVPPFFGSCSLLESLALSSNNFSGELPMDTLLKMRGLKVLDLSFNEFSGELPESLTNLSASLLTLDLSSNNFSGPILPNLCQNPKNTLQELYLQNNGFTGKIPPTLSNCSELVSLHLSFNYLSGTIPSSLGSLSKLRDLKLWLNMLEGEIPQELMYVKTLETLILDFNDLTGEIPSGLSNCTNLNWISLSNNRLTGEIPKWIGRLENLAILKLSNNSFSGNIPAELGDCRSLIWLDLNTNLFNGTIPAAMFKQSGKIAANFIAGKRYVYIKNDGMKKECHGAGNLLEFQGIRSEQLNRLSTRNPCNITSRVYGGHTSPTFDNNGSMMFLDMSYNMLSGYIPKEIGSMPYLFILNLGHNDISGSIPDEVGDLRGLNILDLSSNKLDGRIPQAMSALTMLTEIDLSNNNLSGPIPEMGQFETFPPAKFLNNPGLCGYPLPRCDPSNADGYAHHQRSHGRRPASLAGSVAMGLLFSFVCIFGLILVGREMRKRRRKKEAELEMYAEGHGNSGDRTANNTNWKLTGVKEALSINLAAFEKPLRKLTFADLLQATNGFHNDSLIGSGGFGDVYKAILKDGSAVAIKKLIHVSGQGDREFMAEMETIGKIKHRNLVPLLGYCKVGDERLLVYEFMKYGSLEDVLHDPKKAGVKLNWSTRRKIAIGSARGLAFLHHNCSPHIIHRDMKSSNVLLDENLEARVSDFGMARLMSAMDTHLSVSTLAGTPGYVPPEYYQSFRCSTKGDVYSYGVVLLELLTGKRPTDSPDFGDNNLVGWVKQHAKLRISDVFDPELMKEDPALEIELLQHLKVAVACLDDRAWRRPTMVQVMAMFKEIQAGSGIDSQSTIRSIEDGGFSTIEMVDMSIKEVPEGKL
notes: Expressed in transgenic Arabidopsis; solubilised microsomal proteins used for co-immunoprecipitation; also called BRI1-GFP protein expressed from the BRI1 promoter; not shown: GFP tag
B2: BRK1-myc (enzyme)
chain: GCCQSLFSGDNPLGKDGVQPQPLSQNNHGGATTADNGGSGGASGVGGGGGGGGIPSFSEFSFADLKAATNNFSSDNIVSESGEKAPNLVYKGRLQNRRWIAVKKFTKMAWPEPKQFAEEAWGVGKLRHNRLANLIGYCCDGDERLLVAEFMPNDTLAKHLFHWENQTIEWAMRLRVGYYIAEALDYCSTEGRPLYHDLNAYRVLFDEDGDPRLSCFGLMKNSRDGKSYSTNLAYTPPEYLRNGRVTPESVTYSFGTVLLDLLSGKHIPPSHALDMIRGKNIILLMDSHLEGKFSTEEATVVVELASQCLQYEPRERPNTKDLVATLAPLQTKSDVPSYVMLGIKKQEEAPSTPQRPLSPLGEACSRMDLTAIHQILVMTHYRDDEGTNELSFQEWTQQMKDMLDARKRGDQSFREKDFKTAIDCYSQFIDVGTMVSPTVFGRRSLCYLLCDQPDAALRDAMQAQCVYPDWPTAFYMQSVALAKLNMNTDAADMLNEAAQLEEKRQRGGRGS
notes: Full-length BRK1 with C-terminal 4x Myc tag, expressed from the 35S promoter in Arabidopsis; also called BRK1-myc protein; not shown: 4x Myc tag of the pGWB17 vector

How the values were obtained:
[1] = biological target: T1, Protein A bead alone (UniProt P38507 37-477); assay: immunoprecipitation control from microsomal proteins, anti-GFP immunoblot
T1 construct: IP control without antibody; also called Protein A Sepharose beads
Procedure: Microsomal proteins (Input, lane 1) from det2 mutant plants expressing BRI1-GFP under the control of BRI1 promoter were immunoprecipitated (IP) using polyclonal anti-BRK1 antibodies affinity-purified using an BRK1 antigen column (lane 3). Protein A bead alone was used as IP control (lane 2). Immunoblots were probed using anti-GFP antibodies. BRI1-GFP can be pulled down by anti-BRI1 antibody but not by protein A bead.
All procedures were performed at 4° C. Rosette leaves of 3-week-old Arabidopsis plants were homogenized with mortar and pestle in the grinding buffer (20 mM HEPES, pH 7.5, 40 mM KCl, 250 mM sucrose, 5 mM MgCl₂ and protein inhibitors) at a ratio of 3 mL buffer per gram of tissue. Homogenate was filtered through 2 layers of Miracloth (CalBiochem, La Jolla, Calif.), and centrifuged at 10,000 g for 10 minutes. The supernatant was further centrifuged at 100,000 g for 60 min to pellet the microsomal fraction. Microsomes were re-suspended in 0.5 mL grinding buffer and sonicated for 10 sec. Triton X-100 was added to a final concentration of 1%. After mixing, the extracts were centrifuged at 20,000 g for 10 min. Supernatant was diluted 5 times with grinding buffer to reduce Triton X-100 to 0.2%. […] Samples were analyzed by SDS-PAGE and immunoblotting.

[2] = biological target: B1; assay: co-immunoprecipitation with anti-GFP antibodies after 100 nM brassinolide for 30 min, anti-myc immunoblot (FIG. 2D)

Binder: B1
- binding result [1]: no binding

Binder: B2
- amount of co-immunoprecipitated BRK1-myc after BR treatment relative to the untreated sample [2]: 46 % of the untreated sample

— US20100043097A1 (CARNEGIE INSTITUTION OF WASHINGTON, published 2010)
